Data taken from publication PMC3435407 (PLoS ONE, 2012).
Non-standard residues stand in square brackets, D forms with d. No end group written: not given here. *: point of attachment. Biotin = O=C1N[C@H]2[C@H](CS[C@H]2CCCCC(=O)*)N1; Bpa = N[C@@H](Cc1ccc(C(=O)c2ccccc2)cc1)C(=O)O

Experiments:
[1] = target: T1, αAG98R-crystallin (human αA-crystallin G98R mutant) (human, UniProt P02489 1-173, G98R); test: cross-linking; 200 µg biotinyl-Bpa peptide with 200 µg αAG98R, pH 7.2, 37°C, 1 hr; free peptide removed on a 10 kDa filter; photolysis at 365 nm, 30 min, 4°C; desalted on C18; MALDI-TOF/TOF mass spectrometry; details: both partners purified
T1 sequence (P02489 whole entry G98R): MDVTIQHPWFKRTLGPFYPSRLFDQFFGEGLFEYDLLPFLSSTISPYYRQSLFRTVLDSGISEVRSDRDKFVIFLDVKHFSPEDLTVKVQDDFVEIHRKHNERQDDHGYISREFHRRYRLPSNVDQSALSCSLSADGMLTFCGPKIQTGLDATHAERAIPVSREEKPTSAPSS

[2] = target: T1, αAG98R-crystallin (human αA-crystallin …); test: cross-linking; 200 µg biotinyl-Bpa peptide with 200 µg αAG98R, pH 7.2, 37°C, 1 hr; free peptide removed on a 10 kDa filter; photolysis at 365 nm, 30 min, 4°C; SDS-PAGE and western blot for biotin (avidin-horseradish peroxidase); details: both partners purified

stoichiometry N [1]: 1 peptide per αAG98R monomer
stoichiometry N [2]: 1 peptide per αAG98R subunit
Binder: Biotin-DFVIFLDVKH[Bpa]SPEDLTVK [Biotin-DFVIFLDVKH(Bpa)SPEDLTVK (biotinyl αA-mini-chaperone-Bpa peptide)]
